Test results: the Human Domainome abundance scans (Beltran et al. 2025)
± gives the uncertainty stated by the source.

B1: Peroxisome proliferator-activated receptor delta, residues 71 to 145; numbered along this chain, Q03181 (parent)
chain: NMECRVCGDKASGFHYGVHACEGCKGFFRRTIRMKLEYEKCERSCKIQKKNRNKCQYCRFQKCLALGMSHNAIRF

Variants of: B1
Experiment: abundance fitness (aPCA) (normalised: wild type 0, dead -1); higher = more abundant; growth selection in yeast, the domain comes from the species named
Conditions: Homo sapiens

Variant | abundance fitness
NMECRVCGDKASGFHYGVHACEGCKGFFRRTIRMKLEYEKCERSCKIQKKNRNKCQYCRFQKCLALGMSHWAIRF [N71W] | -0.362 ± 0.059
NMECRVCGDKASGFHYGVHACEGCKGFFRRTIRMKLEYEKCERSCKIQKKNRNKCQYCRFQKCLALGMSHMAIRF [N71M] | -0.394 ± 0.081
NMECRVCGDKASGFHYGVHACEGCKGFFRRTIRMKLEYEKCERSCKIQKKNRNKCQYCRFQKCLALGMSHNAQRF [I73Q] | 0.078 ± 0.053
NMECRVCGDKASGFHYGVHACEGCKGFFRRTIRMKLEYEKCERSCKIQKKNRNKCQYCRFQKCLALGMSHNAHRF [I73H] | -0.017 ± 0.069
NMECRVCGDKASGFHYGVHACEGCKGFFRRTIRMKLEYEKCERSCKIQKKNRNKCQYCRFQKCLALGMSHNAKRF [I73K] | -0.05 ± 0.062
NMECRVCGDKASGFHYGVHACEGCKGFFRRTIRMKLEYEKCERSCKIQKKNRNKCQYCRFQKCLALGMSHNAMRF [I73M] | 0.137 ± 0.051
NMECRVCGDKASGFHYGVHACEGCKGFFRRTIRMKLEYEKCERSCKIQKKNRNKCQYCRFQKCLALGMSHNAPRF [I73P] | 0.215 ± 0.044
NMECRVCGDKASGFHYGVHACEGCKGFFRRTIRMKLEYEKCERSCKIQKKNRNKCQYCRFQKCLALGMSHNACRF [I73C] | 0.047 ± 0.057
NMECRVCGDKASGFHYGVHACEGCKGFFRRTIRMKLEYEKCERSCKIQKKNRNKCQYCRFQKCLALGMSHNASRF [I73S] | 0.071 ± 0.035
NMECRVCGDKASGFHYGVHACEGCKGFFRRTIRMKLEYEKCERSCKIQKKNRNKCQYCRFQKCLALGMSHNAFRF [I73F] | -0.094 ± 0.069
NMECRVCGDKASGFHYGVHACEGCKGFFRRTIRMKLEYEKCERSCKIQKKNRNKCQYCRFQKCLALGMSHNAERF [I73E] | 0.288 ± 0.043
NMECRVCGDKASGFHYGVHACEGCKGFFRRTIRMKLEYEKCERSCKIQKKNRNKCQYCRFQKCLALGMSHNAGRF [I73G] | 0.136 ± 0.033
NMECRVCGDKASGFHYGVHACEGCKGFFRRTIRMKLEYEKCERSCKIQKKNRNKCQYCRFQKCLALGMSHNATRF [I73T] | 0.184 ± 0.041
NMECRVCGDKASGFHYGVHACEGCKGFFRRTIRMKLEYEKCERSCKIQKKNRNKCQYCRFQKCLALGMSHNAARF [I73A] | 0.202 ± 0.038
NMECRVCGDKASGFHYGVHACEGCKGFFRRTIRMKLEYEKCERSCKIQKKNRNKCQYCRFQKCLALGMSHNALRF [I73L] | 0.087 ± 0.037
NMECRVCGDKASGFHYGVHACEGCKGFFRRTIRMKLEYEKCERSCKIQKKNRNKCQYCRFQKCLALGMSHNANRF [I73N] | 0.039 ± 0.077
NMECRVCGDKASGFHYGVHACEGCKGFFRRTIRMKLEYEKCERSCKIQKKNRNKCQYCRFQKCLALGMSHNAYRF [I73Y] | -0.097 ± 0.072
NMECRVCGDKASGFHYGVHACEGCKGFFRRTIRMKLEYEKCERSCKIQKKNRNKCQYCRFQKCLALGMSHNARRF [I73R] | -0.117 ± 0.036
NMECRVCGDKASGFHYGVHACEGCKGFFRRTIRMKLEYEKCERSCKIQKKNRNKCQYCRFQKCLALGMSHNAWRF [I73W] | -0.152 ± 0.049

Variant | abundance fitness
NMECRVCGDKASGFHYGVHACEGCKGFFRRTIRMKLEYEKCERSCKIQKKNRNKCQYCRFQKCLALGMSHNADRF [I73D] | 0.119 ± 0.055
NMECRVCGDKASGFHYGVHACEGCKGFFRRTIRMKLEYEKCERSCKIQKKNRNKCQYCRFQKCLALGMSHNDIRF [A72D] | 0.132 ± 0.048
NMECRVCGDKASGFHYGVHACEGCKGFFRRTIRMKLEYEKCERSCKIQKKNRNKCQYCRFQKCLALGMSHNEIRF [A72E] | 0.122 ± 0.042
NMECRVCGDKASGFHYGVHACEGCKGFFRRTIRMKLEYEKCERSCKIQKKNRNKCQYCRFQKCLALGMSHNRIRF [A72R] | -0.257 ± 0.043
NMECRVCGDKASGFHYGVHACEGCKGFFRRTIRMKLEYEKCERSCKIQKKNRNKCQYCRFQKCLALGMSHNSIRF [A72S] | 0.052 ± 0.04
NMECRVCGDKASGFHYGVHACEGCKGFFRRTIRMKLEYEKCERSCKIQKKNRNKCQYCRFQKCLALGMSHNTIRF [A72T] | -0.248 ± 0.065
NMECRVCGDKASGFHYGVHACEGCKGFFRRTIRMKLEYEKCERSCKIQKKNRNKCQYCRFQKCLALGMSHNNIRF [A72N] | -0.092 ± 0.084
NMECRVCGDKASGFHYGVHACEGCKGFFRRTIRMKLEYEKCERSCKIQKKNRNKCQYCRFQKCLALGMSHNLIRF [A72L] | -0.144 ± 0.041
NMECRVCGDKASGFHYGVHACEGCKGFFRRTIRMKLEYEKCERSCKIQKKNRNKCQYCRFQKCLALGMSHNWIRF [A72W] | -0.353 ± 0.061
NMECRVCGDKASGFHYGVHACEGCKGFFRRTIRMKLEYEKCERSCKIQKKNRNKCQYCRFQKCLALGMSHNFIRF [A72F] | -0.27 ± 0.1
NMECRVCGDKASGFHYGVHACEGCKGFFRRTIRMKLEYEKCERSCKIQKKNRNKCQYCRFQKCLALGMSHNIIRF [A72I] | -0.297 ± 0.1
NMECRVCGDKASGFHYGVHACEGCKGFFRRTIRMKLEYEKCERSCKIQKKNRNKCQYCRFQKCLALGMSHNKIRF [A72K] | -0.175 ± 0.067
NMECRVCGDKASGFHYGVHACEGCKGFFRRTIRMKLEYEKCERSCKIQKKNRNKCQYCRFQKCLALGMSHNMIRF [A72M] | 0.019 ± 0.059
NMECRVCGDKASGFHYGVHACEGCKGFFRRTIRMKLEYEKCERSCKIQKKNRNKCQYCRFQKCLALGMSHNGIRF [A72G] | 0.059 ± 0.03
NMECRVCGDKASGFHYGVHACEGCKGFFRRTIRMKLEYEKCERSCKIQKKNRNKCQYCRFQKCLALGMSHNYIRF [A72Y] | -0.156 ± 0.09
NMECRVCGDKASGFHYGVHACEGCKGFFRRTIRMKLEYEKCERSCKIQKKNRNKCQYCRFQKCLALGMSHNQIRF [A72Q] | 0.008 ± 0.058
NMECRVCGDKASGFHYGVHACEGCKGFFRRTIRMKLEYEKCERSCKIQKKNRNKCQYCRFQKCLALGMSHNHIRF [A72H] | 0.047 ± 0.069
NMECRVCGDKASGFHYGVHACEGCKGFFRRTIRMKLEYEKCERSCKIQKKNRNKCQYCRFQKCLALGMSHNCIRF [A72C] | -0.126 ± 0.063
